{
  "source": "patent US20230313217A1",
  "about": "“CHLOROPLAST TARGETING PEPTIDES AND CONJUGATES AND COMPOSITIONS THEREOF” (The Regents of the University of California, priority 2021, published 2023)",
  "key": {"chloroplast DNA": {"test_system": "chloroplast DNA", "conditions": "in vivo", "procedure": "Chloroplasts were isolated from Arabidopsis leaves through a centrifugation gradient method in sucrose buffer.^1-3 Intact chloroplasts were isolated from leaves exposed to targeted and non-targeted CDs and pATV1-SWCNT, and buffer as control (10 mM TES pH 7.3) in 0.1% Silwet (v/v) for one day or five days. Following foliar spray with nanomaterials as explained above, 4 g of leaf tissue was collected from seven plants per treatment. Treated tissue was harvested, and ground in ice-cold 1× chilled sucrose buffer (pH 7.3, 28 mM Na2HPO4, 22 mM KH2PO4, 2.5 mM MgCl2, 400 mM sucrose, and 10 mM KCl). […]\nDNA was extracted from plant leaf tissue and prepared using a Quick-DNA Plant/Seed DNA Miniprep kit (Zymo) in leaf samples treated with nanomaterials from one to five days. […] The DNA extraction was performed according to the manufacturer's instructions (zymoresearch.com) and concentrations were measured using a Nanodrop ND-1000 Spectrophotometer. […]\nWe determined the amount of oxidative DNA damage in plant leaves treated with nanomaterials for one day or five days using an enzyme-linked immunosorbent assay (ELISA) for 8-hydroxydeoxyguanosine (8-OHdG). The OxiSelect™ Oxidative DNA Damage ELISA Kit (Cat# STA-320, Cell Biolabs, inc.) quantifies the amount of 8-OHdG in isolated DNA samples from plant leaf tissue or isolated chloroplast suspensions. […]"}, "[1]": {"test_system": "chloroplasts in Arabidopsis leaves", "assay": "Confocal colocalization of nanomaterials with chloroplasts after foliar spray", "format": "in vivo, Arabidopsis thaliana", "experimental": "In Vivo Imaging of Chloroplast Targeted Nanomaterials. Confocal fluorescence microscopy imaging was used to determine the colocalization between chloroplasts in Arabidopsis leaves and both targeted and nontargeted β-CDs and CY3-ds(GT)15 (SEQ ID NO: 6) DNA coated SWCNT (FIG. 3A,B). Nanomaterials were foliar sprayed on whole plants in a formulation containing 0.1% Silwet (v/v) (Table 1). Control confocal images of leaves treated with only 10 mM TES buffer have no background autofluorescence in CD and CY3-ds(GT)15 (SEQ ID NO: 6) DNA emission channels (FIG. 12). The level of colocalization of fluorescent emission from nanocarriers with chloroplasts was determined by Manders' coefficient analysis (COLOC2, ImageJ) (FIG. 3C). The localization of targeted nanomaterials (TP-β-CD and TP-CY3-ds(GT)15-SWCNT) with chloroplasts in leaf mesophyll cells was higher compared to nontargeted materials lacking the targeting peptide (β-CD and CY3-ds(GT)15-SWCNT). […] Previously, we reported an in vivo increase in colocalization of chloroplasts with heavy-metal-based quantum dots functionalized with chloroplast targeting biorecognition peptides,^16 indicating the robustness of this approach for a variety of targeted nanomaterials. […]\nConfocal Fluorescence Microscopy. […]"}, "[2]": {"test_system": "Arabidopsis leaf mesophyll tissue", "assay": "Plant cell viability assay (propidium iodide, percentage of dead cells)", "format": "in vivo, Arabidopsis thaliana", "experimental": "Impact of Targeted Nanomaterials on Plant Cell Viability. We investigated the viability of plant cells treated with increasing concentrations of targeted and nontargeted nanomaterials by measuring the percentage of dead plant cells. Arabidopsis leaf tissues were treated with targeted nanomaterials at 20, 100, 500 mg/L concentrations of TP-β-CDs or 2, 5, 10 mg/L of TP-pATV1-SWCNTs (FIG. 6, Table 1). Biocompatibility assays were performed up to 5 days of nanocarrier exposure before control Arabidopsis plants experienced the onset of leaf senescence marked by significant changes in chlorophyll levels (FIG. 15A). On day 7, significant differences in chlorophyll were detected in control Arabidopsis plants without nanomaterials. […] Therefore, subsequent experiments assessing the impact of targeted nanocarriers on plant cell and molecular biology were focused on biocompatible concentrations of 20 mg/L for TP-β-CDs and 2 mg/L for TP-pATV1-SWCNTs.\nThe percentage of intact cells was determined in Arabidopsis thaliana leaf tissues treated with TP-β-CD (20, 100, 500 mg/L) or TP-pATV1-SWCNT (2, 5, 10 mg/L) from one to five days. The nuclei of dead cells were stained with propidium iodide (PI) diluted to 1× concentration manufactures (Plant cell viability assay kit, PA0100, Sigma-Aldrich). Leaf discs were collected and incubated in PI dye for 15 minutes before confocal analysis. PI can enter cells with damaged membranes, and bind to double-stranded nucleic acids in non-viable cells. […] The total number of cells was determined using chloroplast autofluorescence to identify the leaf mesophyll cell boundaries. The leaf disc surface was washed with DI water to remove the residual dye and mounted on a microscope glass slide for imaging by laser scanning confocal microscope (TCS SP5, Leica Microsystems, Germany). Confocal imaging settings were as follows: ×40 wet objective (Leica Microsystems, Germany), propidium iodide dye excitation by a 543 nm laser (40% power), and PMT emission detection range set to 590-630 nm with Pinhole size set to 3 airy units."}},
  "note": "Ends that are not written are not given here.",
  "data": [
    {"substance": "TP-β-CD: carbon dots with β-cyclodextrin molecular baskets covalently bonded to chloroplast targeting peptide MASSMLSSATMVGGC (SEQ ID NO:5) (also: covalently bonded to carbon dots with β-cyclodextrin, site not given here)", "values": [
      {"measurement": "oxidative damage to isolated chloroplast DNA", "setting": "chloroplast DNA", "result": "not affected"},
      {"measurement": "colocalization rates of nanomaterials with chloroplasts", "setting": "[1]; foliar spray, CD 20 mg/L, ds(GT)15-SWCNT 2 mg/L, Manders' coefficient, FIG. 3C", "result": "70.0±9.46", "unit": "%"},
      {"measurement": "delivery, % of chloroplasts in leaves", "setting": "[1]; summary of Example 1", "result": 70, "unit": "%"},
      {"measurement": "biocompatible concentration", "setting": "[2]; Arabidopsis leaves, up to 5 days", "result": 20, "unit": "mg/L"},
      {"measurement": "percentage of dead cells", "setting": "[2]; TP-β-CD 20 mg/L, TP-pATV1-SWCNT 2 mg/L, summary", "result": 6, "unit": "%"},
      {"measurement": "percentage of dead cells compared to control plants", "setting": "[2]; after 5 days of exposure, TP-β-CDs 20 mg/L, TP-pATV1-SWCNTs 2 mg/L", "result": "no significant differences"},
      {"measurement": "plant dead cells relative to controls without nanoparticles", "setting": "[2]; day 1, TP-β-CDs 20 mg/L, TP-pATV1-SWCNTs 2 mg/L", "result": "no significant differences"},
      {"measurement": "percentage of dead cells", "setting": "[2]; day 5, 100 mg/L", "result": "20.0±4.8", "unit": "%"},
      {"measurement": "percentage of dead cells", "setting": "[2]; day 5, 500 mg/L", "result": "23.4±4.8", "unit": "%"}
    ]}
  ]
}
